Test results from patent US12127562B2, “Methods and compositions that increase pesticidal activity for FR901228” (PRO FARM GROUP, INC., priority 2020, dated 2024).
Converted amounts (≈) assume the structure as drawn. “Also recorded” adds a separate entry of the source. Where two headings read alike, the source gives them in different places.

B1: DnaK: Chaperone protein DnaK from Burkholderia rinojensis A396 (SEQ ID No. 2), His-tagged, overexpressed in E. coli (protein)
chain: MGKIIGIDLGTTNSCVAVMEGNQVKVIENSEGARTTPSIIAYMDDNEVLVGAPAKRQSVTNPRNTLFAVKRLIGRRFEEKEVQKDIGLMPYAIIKADNGDAWVEAHGDKLAPPQVSAEVLRKMKKTAEDYLGEPVTEAVITVPAYFNDSQRQATKDAGRIAGLEVKRIINEPTAAALAFGLDKAEKGDRKIAVYDLGGGTFDVSIIEIADVDGEMQFEVLSTNGDTFLGGEDFDQRIIDYIIGEFKKEQGVDLSKDVLALQRLKEAAEKAKIELSSGQQTEINLPYITADASGPKHLNLKITRAKLEALVEELVERTIEPCRIAIKDAGVKVSDIDDVILVGGQTRMPKVLEKVKEFFGKDPRRDVNPDEAVAVGAAIQGQVLSGDRKDVLLLDVTPLSLGIETLGGVMTKMINKNTTIPTKHAQVYSTADDNQGAVTIKVFQGEREMAAGNKLLGEFNLEGIPPAPRGVPQIEVTFDIDANGILHVGAKDKATGKENKITIKANSGLSEAEIDQMIKDAEANAAEDHKLRELADSRNQGDALVHSTKKAVAEYGDKLDAGEKDKIEAALKELEDVLKNTSADKAAIDAKIEALSTASQKLGEKMYADMQAQQAGAAGAAGAAEGAAHGGAQQADDVVDADFKEVKKD
modifications: His tag; Burkholderia rinojensis A396
B2: HtpG: Chaperone protein HtpG from Burkholderia rinojensis A396 (SEQ ID No. 1), His-tagged, overexpressed in E. coli (protein)
chain: MTQQTMSFQAEVKQLLHLMIHSLYSNKEIFLRELVSNASDAADKLRFEALENGALYENDPNLRIRIGFDPAARTLTIDDNGIGMSRDEAIANLGTIARSGTKEFFSKLSGDQQKDAALIGQFGVGFYSGFIVADRITVETRRAGLPASEGVRWESGGEGDFSIDAIERAARGTTITLHLREGEDELLSAHRLKSIVRKYSDHVALPILMQQEAWDAEKGEMVAKDEDETVNQASALWTRAKSEITDEQYQQFYQHLAHDHQNPLAWTHNRVEGRSEYTQLLYVPSHAPFDLWNRDYRGGLKLYVKRVFIMDDAEQLLPQYLRFVKGVVDSADLPLNVSREILQESRDVKAIREGVTKRALSMLEELANAEDDAGKEQYRTFWSAFGQVLKEGVGEDQANRERVAKLVRFASTHGGTDAQDVSLADYVARMKPEQTRIYYVTADTWQAATHSPHLEVFRKKGVEVLLLTDRVDEWMLSYLQEFDGKPLASVARGDLDLGALDDAEKKAQEETGEAFKPLVEKMKEALGDKAKDVRVTFRLTDSPSCLVADDHDMSGYLQRMLKAAGQSGPAMQPILEVNPEHPLVKQLQADSPEFGDWCHLLFDQALLAEGGALEDPASFVKRTNTLLLSRAA
modifications: His tag; Burkholderia rinojensis A396

Test system: Beet army worm (Spodoptera exigua)
Assay: Beet army worm diet overlay assay (insecticidal activity)
Assay type: in vivo
Settings: for LC50: Spodoptera exigua, MW 540 concentration 50 μg/mL, protein concentration 0 mg/mL; for LC50 (μg/mL MW 540): Table 4, heated, MW 540 concentration 0 μg/mL, protein concentration 5 mg/mL; for insecticidal activity (in words): text summary, compared to MW 540 alone
Source text: The present inventors evaluated whether these two proteins can form conjugates with MW 540 and whether the conjugate has the same insecticidal activity as MW 540 alone. One skilled in the art knows that protein purification often uses polyhistidine-tags to assist with the concentration and removal of desired proteins from cellular material. The two protein sequences were cloned into an expression vector (pET26b(+)) and over-expressed in E. coli BL21 cells with a His tag added to the C-terminus of the sequence. In other words, His-tagged HtpG and DnaK from B. rinojensis A396 were overexpressed in E. coli and were purified by immobilized metal ion affinity chromatography.
After mixing MW 540 with HtpG and/or DnaK, heat was applied to the mixture to from disulfide bond conjugates and the end-product was evaluated and its insecticidal activity determined.
Table 1's numbers are expressed as protein concentrations as μg/mL. Subsequently, the insecticidal activity of the end products was evaluated using Beet army worm diet overlay assay known in the art.

Molecule	LC50 (read-out: LC50 (μg/mL MW 540), Table 2)	LC50 (read-out: LC50 (μg/mL MW 540), Table 3)	LC50 (read-out: LC50 (μg/mL MW 540), Table 4, unheated)	LC50 (μg/mL MW 540)	insecticidal activity (in words)	insecticidal activity (in words) (listed as HtPG)
C/C=C1\NC(=O)[C@H]2CSSCC/C=C/[C@H](CC(=O)N[C@H](C(C)C)C(=O)N2)OC(=O)[C@H](C(C)C)NC1=O [MW 540, romidepsin, reference compound]	0.27 µg/mL (≈ 0.499 µM)	0.35 µg/mL (≈ 0.647 µM)	0.43 µg/mL (≈ 0.795 µM)			
B1				No Activity	does not exhibit insecticidal activity; also recorded: did not show insecticidal activity	
B2				No Activity	did not show insecticidal activity	does not exhibit insecticidal activity
